Target: T1, ETS-4 (Caenorhabditis elegans) (UniProt A8WFJ9)
T1 sequence: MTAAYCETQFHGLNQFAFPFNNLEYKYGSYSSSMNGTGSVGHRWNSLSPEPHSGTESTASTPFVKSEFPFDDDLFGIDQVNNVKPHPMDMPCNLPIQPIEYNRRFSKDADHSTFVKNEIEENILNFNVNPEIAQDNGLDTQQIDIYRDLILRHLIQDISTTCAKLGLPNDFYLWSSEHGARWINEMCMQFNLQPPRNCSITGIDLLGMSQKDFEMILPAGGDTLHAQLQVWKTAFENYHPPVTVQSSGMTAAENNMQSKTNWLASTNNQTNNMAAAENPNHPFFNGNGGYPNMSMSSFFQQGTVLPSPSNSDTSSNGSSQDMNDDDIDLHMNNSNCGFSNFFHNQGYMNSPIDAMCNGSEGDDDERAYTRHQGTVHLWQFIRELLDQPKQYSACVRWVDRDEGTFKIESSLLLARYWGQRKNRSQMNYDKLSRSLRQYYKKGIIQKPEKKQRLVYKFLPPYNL
Test: EMSA
Conditions: 25 mM Tris-Cl pH 7.9, 10% glycerol, 0.1 mM EDTA, 60 mM KCl, 6 mM MgCl2, 0.2 mg/ml BSA, 10 mM DTT, 50 ng poly[d(I-C)] in 20 ul, 1 h at 4 C; 6% native PAGE at …

| Sequence | Kd [nM] |
| --- | --- |
| TCGACGGCCAAGCCGGATGTGAGTGCC (double strand) [ETS Site-WT (GGAT)] | 1 |
| TCGACGGCCAAGCCGGAAGTGAGTGCC (double strand) [ETS Site-WT (GGAA)] | 1 |
